We go through three molecules from article PMC11555651 (Biochemical Journal, 2024).

Experiment [1] has as its target N-myc peptide 47-66 (Homo sapiens) (UniProt P04198). To be noted: cited from earlier work.
The target in experiment [2] is T1, Aurora-A kinase domain 122–403 C290A,C393A (UniProt O14965 122-403, C290A | C393A).
T1 construct: Aurora-A Ser/Thr kinase, kinase domain residues 122-403 with C290A and C393A; also called Aurora-A 122–403, C290A, C393A
T1 sequence (looked up): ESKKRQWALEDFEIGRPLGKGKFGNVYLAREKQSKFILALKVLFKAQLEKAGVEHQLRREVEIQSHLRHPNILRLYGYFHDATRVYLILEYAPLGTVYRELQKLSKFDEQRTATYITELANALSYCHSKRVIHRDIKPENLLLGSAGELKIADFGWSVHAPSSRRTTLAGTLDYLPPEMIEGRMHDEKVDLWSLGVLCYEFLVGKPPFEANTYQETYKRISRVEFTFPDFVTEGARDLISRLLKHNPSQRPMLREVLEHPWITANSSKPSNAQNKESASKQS
The experiment is described as follows: NMR titration; 1H-15N HSQC of 15N-labelled N-myc constructs (150-315 uM); unlabelled Aurora-A kinase domain (305-400 uM stock) added up to [N-myc]:[Aurora-A] 1:1.4; 20 mM (K/H)3PO4 pH 6.5, 150 mM NaCl, 2 mM beta-mercaptoethanol, 1% glycerol, 5 mM MgCl2, 5 mM ADP; 25°C stated for N-myc TAD. As to conditions: both partners purified.

In general, Kd refers to the constant that tells how readily two partners part at equilibrium. For Fbxw7–Skp1 (from UniProt Q969H0), the equilibrium dissociation constant (Kd) in experiment [1] was under 10 nM.

B1: N-myc_(64–137) (domain or fragment)
chain: GAMGSRGFAEHSSEPPSWVTEMLLENELWGSPAEEDAFGLGGLGGLTPNPVILQDCMWSGFSAREKLERAVSEKLQHG
notes: 15N-labelled for the NMR titration; also called C-terminal truncation of the TAD; not shown: His-NusA, N-terminal, cleaved
In the case of B1, the binding result in experiment [2] was “binds”.

B2: N-myc_(1–137) TAD (domain or fragment)
chain: GAMMPSCSTSTMPGMICKNPDLEFDSLQPCFYPDEDDFYFGGPDSTPPGEDIWKKFELLPTPPLSPSRGFAEHSSEPPSWVTEMLLENELWGSPAEEDAFGLGGLGGLTPNPVILQDCMWSGFSAREKLERAVSEKLQHG
notes: whole N-myc is said to have 464 residues; 15N-labelled for the NMR titration; also called N-myc TAD; not shown: His-NusA, N-terminal, cleaved
On to B2, for which the binding result in experiment [2] was “binds”.
